From publication PMC10662374, “Structures of the interleukin 11 signalling complex reveal gp130 dynamics and the inhibitory mechanism of a cytokine variant” (Nature Communications, 2023)
Where “and” joins values, the source holds several entries; their conditions need not be identical. Equal values may be shown once.

Experiments:
[1] = biological target: T1, IL-11RαD1-D3 (C-terminally truncated form of human IL-11Rα, structured extracellular domains D1-D3) (human, UniProt Q14626 23-319); assay: SPR; Biacore T200; biotinylated IL-11-avi constructs immobilised on a streptavidin chip; IL-11RαD1-D3 injected, two-fold dilutions from 500 nM; 25 °C (298 K); TBS pH 8.5 + 0.05% Tween; 30 μL/min; 1:1 kinetic model; n = 2; details: both partners purified
T1 construct: interleukin 11 receptor subunit alpha, human, domains D1-D3 (C-terminally truncated extracellular region); Expressed with a honeybee-melittin signal peptide; not shown: His8, N-terminal, cleaved
T1 sequence: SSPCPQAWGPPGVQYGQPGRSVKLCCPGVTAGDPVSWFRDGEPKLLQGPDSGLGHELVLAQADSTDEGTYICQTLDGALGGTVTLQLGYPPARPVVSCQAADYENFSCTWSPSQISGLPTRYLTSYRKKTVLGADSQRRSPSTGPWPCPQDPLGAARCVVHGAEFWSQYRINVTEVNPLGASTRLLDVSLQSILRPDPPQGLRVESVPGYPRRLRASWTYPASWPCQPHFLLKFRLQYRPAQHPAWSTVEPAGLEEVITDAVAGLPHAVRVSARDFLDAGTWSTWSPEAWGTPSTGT

[2] = biological target: the molecule itself; assay: cell-based or functional assay
[3] = biological target: T2, IL-11Rα D1-D3 (human, UniProt Q14626 23-319); assay: SPR; biotinylated IL-11Δ10-avi or IL-11Δ10/Mutein-avi immobilised on a streptavidin chip (SAHC 1500M); IL-11Rα D1-D3 flowed over, nine-point two-fold dilution series from 500 nM; Biacore T200, 25 °C, TBS pH 8.5 + 0.05% Tween, 30 uL/min; 1:1 kinetic model; two replicate dilution series (run 1, run 2); details: both partners purified
T2 construct: interleukin 11 receptor subunit alpha, human, C-terminally truncated form with the structured extracellular domains D1-D3; Secreted with a honeybee-melittin signal peptide; tag removed with TEV protease; N-glycosylated; also called IL11RA; RA; not shown: His8, N-terminal, cleaved
T2 sequence: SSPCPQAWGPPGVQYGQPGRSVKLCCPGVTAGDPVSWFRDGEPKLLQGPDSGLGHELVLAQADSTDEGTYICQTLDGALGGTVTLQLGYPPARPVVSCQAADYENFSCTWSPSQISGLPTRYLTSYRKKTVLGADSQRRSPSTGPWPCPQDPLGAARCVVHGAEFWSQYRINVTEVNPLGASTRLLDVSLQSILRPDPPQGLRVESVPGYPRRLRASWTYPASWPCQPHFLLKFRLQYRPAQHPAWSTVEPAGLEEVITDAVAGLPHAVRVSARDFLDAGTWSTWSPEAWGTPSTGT

[4] = biological target: T3, IL-11Rα_(D1-D3) (human, UniProt Q14626 23-319, N-linked glycans (N105, N172 seen in the structures)); assay: ITC; cytokine in the syringe (10-fold above IL-11Rα), IL-11Rα_(D1-D3) in the cell at 10 μM, TBS pH 8.5, 1:1 interaction model, n = 3; details: both partners purified
T3 construct: Secreted with a honeybee-melittin signal peptide; also called C-terminally truncated form of IL-11Rα; not shown: His8, N-terminal, cleaved
T3 sequence: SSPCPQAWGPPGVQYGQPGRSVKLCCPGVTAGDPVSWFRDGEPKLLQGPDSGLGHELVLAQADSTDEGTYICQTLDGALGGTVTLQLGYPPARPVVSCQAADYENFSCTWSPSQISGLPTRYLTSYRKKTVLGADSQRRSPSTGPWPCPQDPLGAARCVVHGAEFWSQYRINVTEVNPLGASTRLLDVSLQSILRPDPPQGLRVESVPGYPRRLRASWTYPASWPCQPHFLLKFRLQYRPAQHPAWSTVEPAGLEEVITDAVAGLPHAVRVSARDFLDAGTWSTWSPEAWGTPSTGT

[5] = biological target: T3, IL-11Rα_(D1-D3); assay: cell-based or functional assay
[6] = biological target: T4, IL-11Δ10/IL-11Rα_(D1-D3) binary complex (human, UniProt P20809 32-199; Q14626 23-319); assay: ITC; gp130 in the syringe titrated against the cytokine/IL-11Rα_(D1-D3) complex formed in the cell, 288 K, TBS pH 8.5, 1:1 interaction model, n = 3; details: both partners purified
T4 construct: IL-11, human, IL-11Δ10, as m1; numbers count on: the mature protein; IL-11Rα, human, D1-D3, as m8; m1 with m8; also called IL-11Rα_(D1-D3)/IL-11Δ10 binary complex; binary IL-11/IL-11Rα complex; source: formed from the purified proteins (IL-11Δ10 from E. coli, IL-11Rα_(D1-D3) from Sf21); in ITC by titrating the cytokine into IL-11Rα; not shown: His6, N-terminal, cleaved; His8, N-terminal, cleaved; …
T4 sequence 1: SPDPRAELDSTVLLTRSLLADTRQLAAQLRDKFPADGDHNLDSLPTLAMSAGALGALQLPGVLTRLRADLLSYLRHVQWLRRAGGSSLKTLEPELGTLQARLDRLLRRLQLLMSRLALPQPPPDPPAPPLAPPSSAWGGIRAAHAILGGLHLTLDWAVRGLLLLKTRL
T4 sequence 2: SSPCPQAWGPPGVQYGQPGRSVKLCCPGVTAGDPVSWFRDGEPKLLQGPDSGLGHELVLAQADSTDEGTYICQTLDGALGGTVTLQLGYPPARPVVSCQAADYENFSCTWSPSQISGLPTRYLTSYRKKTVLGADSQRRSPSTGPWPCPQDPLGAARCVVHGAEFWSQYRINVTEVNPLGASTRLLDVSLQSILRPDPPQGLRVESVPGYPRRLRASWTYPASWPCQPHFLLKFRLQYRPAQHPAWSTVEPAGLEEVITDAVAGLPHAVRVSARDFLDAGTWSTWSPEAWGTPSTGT

B1: biotinylated IL-11Δ10-avi (ligand, human)
chain: SPDPRAELDSTVLLTRSLLADTRQLAAQLRDKFPADGDHNLDSLPTLAMSAGALGALQLPGVLTRLRADLLSYLRHVQWLRRAGGSSLKTLEPELGTLQARLDRLLRRLQLLMSRLALPQPPPDPPAPPLAPPSSAWGGIRAAHAILGGLHLTLDWAVRGLLLLKTRL
modifications: biotin on the C-terminal avitag
notes: interleukin 11, human, N-terminally truncated form (Δ10), as Dm1; numbers count on: the mature protein; also called IL11Δ10 - Avitag; source: E. coli BL21(DE3), biotinylated in the cells, purified as IL-11Δ10; not shown: avitag, C-terminal, kept; His6, N-terminal, cleaved
B1 gave a Kd [1] of 78 nM and a kon [1] of 1.4e+06 M⁻¹ s⁻¹.

B2: IL-11_(Δ10/W147A)/IL-11Rα_(D1-D3)/gp130_(D1-D3) trimer (complex, human)
chain 1: SPDPRAELDSTVLLTRSLLADTRQLAAQLRDKFPADGDHNLDSLPTLAMSAGALGALQLPGVLTRLRADLLSYLRHVQWLRRAGGSSLKTLEPELGTLQARLDRLLRRLQLLMSRLALPQPPPDPPAPPLAPPSSAAGGIRAAHAILGGLHLTLDWAVRGLLLLKTRL
chain 2: SSPCPQAWGPPGVQYGQPGRSVKLCCPGVTAGDPVSWFRDGEPKLLQGPDSGLGHELVLAQADSTDEGTYICQTLDGALGGTVTLQLGYPPARPVVSCQAADYENFSCTWSPSQISGLPTRYLTSYRKKTVLGADSQRRSPSTGPWPCPQDPLGAARCVVHGAEFWSQYRINVTEVNPLGASTRLLDVSLQSILRPDPPQGLRVESVPGYPRRLRASWTYPASWPCQPHFLLKFRLQYRPAQHPAWSTVEPAGLEEVITDAVAGLPHAVRVSARDFLDAGTWSTWSPEAWGTPSTGT
chain 3: GELLDPCGYISPESPVVQLHSNFTAVCVLKEKCMDYFHVNANYIVWKTNHFTIPKEQYTIINRTASSVTFTDIASLNIQLTCNILTFGQLEQNVYGITIISGLPPEKPKNLSCIVNEGKKMRCEWDGGRETHLETNFTLKSEWATHKFADCKAKRDTPTSCTVDYSTVYFVNIEVWVEAENALGKVTSDHINFDPVYKVKPNPPHNLSVINSEELSSILKLTWTNPSIKSVIILKYNIQYRTKDASTWSQIPPEDTASTRSSFTVQDLKPFTEYVFRIRCMKEDGKGYWSDWSEEASGITYEDR
In the case of B2, the “EC50 of STAT3 activation (pSTAT3, flow cytometry) by IL-11_(Δ10/W147A) in Ba/F3 cells stably expressing human gp130 and IL-11Rα” value [2] is reported as 610 pM.

B3: biotinylated IL-11Δ10/Mutein-avi (ligand, human)
chain: SPDPRAELDSTVLLTRSLLADTRQLAAQLRDKFPADGDHNLDSLPTLPAIDYALGALQLPGVLTRLRADLLSYLRHVQWLRRAGGSSLKTLEPELGTLQARLDRLLRRLQLLMSRLALPQPPPDPPAPPLAPPSSAAGGIRAAHAILGGLHLTLDWAVRGLLLLKTRL
modifications: biotin on the C-terminal avitag
notes: interleukin 11, human, Δ10 with W147A and 58PAIDY62, as Dm7; numbers count on: the mature protein; also called IL11Δ10/Mutein - Avitag; source: E. coli BL21(DE3), biotinylated in the cells, purified as IL-11Δ10; not shown: avitag, C-terminal, kept; His6, N-terminal, cleaved
Binder B3 has a Kd [1] of 33 nM and a kon [1] of 1e+06 M⁻¹ s⁻¹.

B4: biotinylated IL-11Δ10-avi (ligand, human)
chain: SPDPRAELDSTVLLTRSLLADTRQLAAQLRDKFPADGDHNLDSLPTLAMSAGALGALQLPGVLTRLRADLLSYLRHVQWLRRAGGSSLKTLEPELGTLQARLDRLLRRLQLLMSRLALPQPPPDPPAPPLAPPSSAWGGIRAAHAILGGLHLTLDWAVRGLLLLKTRL
modifications: biotin on the C-terminal avitag
notes: interleukin 11, human, N-terminally truncated form IL-11Δ10; numbers count on: the mature protein; also called IL11d10; not shown: His6, N-terminal, cleaved; avitag, C-terminal, kept
In the case of B4, the Kd [3] is reported as 78.5 nM and 77.1 nM and 77.8 nM, the koff [3] is reported as 0.0943 s⁻¹ and 0.125 s⁻¹ and the kon [3] is reported as 1.2e+06 M⁻¹ s⁻¹ and 1.61e+06 M⁻¹ s⁻¹ and 1.41e+06 M⁻¹ s⁻¹.

B5: IL-11_(Δ10/Mutein) (ligand, human)
chain: SPDPRAELDSTVLLTRSLLADTRQLAAQLRDKFPADGDHNLDSLPTLPAIDYALGALQLPGVLTRLRADLLSYLRHVQWLRRAGGSSLKTLEPELGTLQARLDRLLRRLQLLMSRLALPQPPPDPPAPPLAPPSSAAGGIRAAHAILGGLHLTLDWAVRGLLLLKTRL
notes: interleukin 11 (IL-11), human, IL-11Δ10 with W147A and AB loop residues 58-62 AMSAG changed to PAIDY; numbers count on: the mature protein; Parent construct IL-11Δ10; also called IL-11 Mutein; not shown: His6, N-terminal, cleaved
In the case of B5, the Kd [4] is reported as 38 nM and the “IC50 of inhibition of IL-11Δ10 (20 ng/mL) mediated STAT3 activation (pSTAT3, flow cytometry) in Ba/F3 cells stably expressing human gp130 and IL-11Rα; competes with IL-11 for IL-11Rα and gp130” value [5] is reported as 850 nM.

B6: gp130EC (receptor, human, UniProt P40189 23-619, looked up)
chain: ELLDPCGYISPESPVVQLHSNFTAVCVLKEKCMDYFHVNANYIVWKTNHFTIPKEQYTIINRTASSVTFTDIASLNIQLTCNILTFGQLEQNVYGITIISGLPPEKPKNLSCIVNEGKKMRCEWDGGRETHLETNFTLKSEWATHKFADCKAKRDTPTSCTVDYSTVYFVNIEVWVEAENALGKVTSDHINFDPVYKVKPNPPHNLSVINSEELSSILKLTWTNPSIKSVIILKYNIQYRTKDASTWSQIPPEDTASTRSSFTVQDLKPFTEYVFRIRCMKEDGKGYWSDWSEEASGITYEDRPSKAPSFWYKIDPSHTQGYRTVQLVWKTLPPFEANGKILDYEVTLTRWKSHLQNYTVNATKLTVNLTNDRYLATLTVRNLVGKSDAAVLTIPACDFQATHPVMDLKAFPKDNMLWVEWTTPRESVKKYILEWCVLSDKAPCITDWQQEDGTVHRTYLRGNLAESKCYLITVTPVYADGPGSPESIKAYLKQAPPSKGPTVRTKKVGKNEAVLEWDQLPVDVQNGFIRNYTIFYRTIIGNETAVNVDSSHTEYTLSSLTSDTLYMVRMAAYTDEGGKDGPEFTFTTPKFAQGEIE
modifications: N-linked glycans (N21, N61, N135 seen in the structures)
notes: Secreted with a honeybee-melittin signal peptide; D5-D6 are not in the deposited model 8DPT; also called complete extracellular domains of gp130; D1-D6 domains of gp130; not shown: His8, N-terminal, cleaved
In the case of B6, the dH [6] is reported as -4.78 kcal/mol.
